Results: the supplement of paper PMC10567573

B1: ZBED2 (parent)
chain: FHLAPARAGHHPNQYATCRLCGRQ

Variants of: B1
Test: protein stability index of a GFP-peptide fusion (GPS, HEK-293T) (PSI 1-6); higher = more stable
Conditions: c terminus: a fixed tail appended
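Note: lentivirally expressed fusions sorted by FACS into six bins by GFP to DsRed ratio, PSI derived from sequencing read proportions per bin multiplied by bin number.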

Protein stability index of substitutions, site by site:
Q14: K 2.58 | C 2.11 | D 1.99 | Y 2.31 | T 1.47 | P 2.48 | E 2.16 | S 1.48
C21: S 3.43 | I 1.74 | K 2.31 | M 1.26 | T 2.72 | Y 1.73 | A 3.59 | H 2.52 | N 1.96 | Q 2.08 | F 1.97 | W 2.1 | L 1.95 | P 2.59
A4: L 1.17 | G 2.19 | E 2.05 | C 2.48 | T 1.84 | D 1.59 | W 2.73 | N 1.48 | S 2.74 | H 1.95 | M 1.39 | I 2.53 | F 2.14 | K 2.32 | Q 1.91
N13: A 2.34 | Q 1.98 | I 1.42 | K 1.77 | C 2.97 | D 1.43 | T 1.52 | Y 1.55 | E 3.21 | M 1.52
R19: F 1.64 | N 1.52 | A 1.93 | W 1.3 | S 1.92 | V 2.78 | Y 1.16 | Q 2.36 | G 2.11 | T 1.81 | H 2.05 | K 3.11 | E 1.7
Y15: C 1.44 | P 1.07 | R 1.15 | H 2.14 | E 2.43 | V 1.57 | I 1.63 | F 2.54 | Q 2.65 | K 1.53
A6: T 1.51 | P 1.93 | W 1.36 | I 1.71 | C 3 | M 1.67 | F 1.68 | S 1.61 | H 1.92 | Y 2.19 | L 1.67 | Q 1.8 | E 2.36 | R 1.77 | V 2.15 | K 1.4 | N 1.65 | D 1.89 | G 2.54
L3: M 1.84 | A 1.61 | Y 1.95 | E 2.75 | K 2.09 | C 1.71 | N 2.23 | F 1.93 | I 1.38 | S 1.45 | T 2.25 | P 3.45 | D 2.5 | H 1.71 | Q 1.13 | V 1.84 | G 1.53
G22: Y 2.12 | T 2.82 | W 1.7 | P 2.92 | H 2.05 | L 2.57 | C 2.87 | I 2.08 | F 1.95 | Q 1.82 | N 1.56 | M 1.21 | A 1.03 | E 1.93
C18: Y 1.93 | N 3.56 | A 2.12 | S 2.4 | T 2.87 | H 2.27 | E 3.08 | L 1.42 | W 1.97 | V 2.25 | K 2.22 | F 1.93 | I 2.17 | M 1.93 | Q 2.87 | P 2.9
G9: L 2.55 | D 1.83 | A 1.86 | C 3.72 | M 2.27 | W 2.05 | F 1.77 | K 1.08 | S 2.51 | Y 1.99 | E 1.97 | H 2.22 | N 2.11 | V 1.37 | P 1.69 | I 1.84 | Q 2.11 | T 2.44
P5: C 2.04 | Q 2.02 | D 2.83 | M 1.05 | A 2.78 | H 1.99 | K 1.83 | I 2.13 | G 1.77 | V 1.96 | F 2.03 | S 1.24 | E 2.36
